In the supplement of paper PMC10126150:
± gives the standard deviation of the averaged measurements.

Tested on: ATP
Test: switch fluorescence ratio, 500 uM ATP over buffer (Cy3 cluster intensity, sum of 5 cycles each) (fold (ratio)); higher = stronger signal-on switching upon ATP binding; sequences stand for … in TCGTCGGCAGCGTCAGATGTGTATAAGAGACAGTTTTTTTTTTTTTTTTTTTTTTTTT…TC
Details: aptamer strand: ATP DNA aptamer (quencher-CACCTGGGGGAGTATTGCGGAGGAAGG + anchor), 100 nM annealed; ATP concentration: 500 uM
Summary of the method: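 Values give the fluorescence ratio for each switch-domain sequence, averaged from per-cluster ratios of summed target-cycle to summed buffer-cycle Cy3 intensity. The Cy3-labelled switching-strand clusters sat on a modified Illumina MiSeq flow-cell, were annealed to 100 nM quencher-labelled ATP aptamer, and were imaged in selection buffer, then after 15 min with 500 uM ATP at 22 °C. Five cycles ran with NaOH stripping and re-annealing between them, and clusters outside 100-1000 RFU were excluded.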
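Note: ATP exposure 15 min at 22 °C before imaging.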

Sequence | switch fluorescence ratio
TTAGGTTTAA | 1.02 ± 0.021
TTAGGTTTAT | 0.986 ± 0.013
TTAGGTTTCT | 1 ± 0.011
TTAGGTTTGC | 1 ± 0.032
TTAGTAATAT | 1.17 ± 0.12
TTAGTACCAT | 1.01 ± 0.028
TTAGTACTGA | 1.05 ± 0.035
TTAGTAGGGT | 0.983 ± 0.04
TTAGTAGGTC | 0.992 ± 0.047
TTAGTAGTGT | 0.973 ± 0.0063
TTAGTATGCT | 0.9864 ± 0.0082
TTAGTCGTGC | 1.01 ± 0.026
TTAGTCTGAT | 1 ± 0.038
TTAGTCTGTT | 0.99 ± 0.022
TTAGTGAAGG | 1.01 ± 0.023
TTAGTGGAAT | 0.9552 ± 0.0073
TTAGTGGGGA | 1.01 ± 0.039
TTAGTGGTAC | 1.15 ± 0.044
TTAGTGTAAT | 1.01 ± 0.025
TTAGTGTATC | 0.982 ± 0.059
TTAGTGTCTT | 0.976 ± 0.025
TTAGTTGGAT | 1.04 ± 0.029
TTAGTTGGGA | 0.9828 ± 0.0087
TTAGTTTCGG | 1.01 ± 0.019
TTAGTTTTAT | 1 ± 0.027

Sequence | switch fluorescence ratio
TTAGTTTTTC | 1.01 ± 0.032
TTATAAACCT | 1.99 ± 1.4
TTATAAGGG | 0.9843 ± 0.0022
TTATAAGTAG | 1.01 ± 0.02
TTATAATGTG | 1.009 ± 0.01
TTATAATTAG | 0.994 ± 0.046
TTATAATTGA | 1.02 ± 0.031
TTATAATTTT | 0.965 ± 0.044
TTATACACAT | 1.06 ± 0.023
TTATACAGGA | 1.019 ± 0.0057
TTATACCTTA | 1.065 ± 0.0043
TTATACGGCT | 1.11 ± 0.092
TTATACGTAT | 1.04 ± 0.037
TTATAGGGAC | 1 ± 0.015
TTATAGGGGT | 1.09 ± 0.057
TTATAGGTAT | 0.9803 ± 0.0054
TTATAGTCAT | 0.965 ± 0.027
TTATATACAG | 1.058 ± 0.0062
TTATATATGC | 0.986 ± 0.028
TTATATCTAC | 1.004 ± 0.0045
TTATATGGGG | 1 ± 0.018
TTATATGGGT | 0.999 ± 0.013
TTATATTCGC | 1.02 ± 0.084
TTATATTGGA | 0.971 ± 0.017
TTATCAGTTG | 1.01 ± 0.057

Sequence | switch fluorescence ratio
TTATCATCCG | 1.08 ± 0.038
TTATCCGGTT | 1.01 ± 0.012
TTATCGAATG | 0.965 ± 0.065
TTATCGAGTT | 1.03 ± 0.015
TTATCGATGA | 1 ± 0.03
TTATCGCTGC | 1.06 ± 0.11
TTATCGGACG | 0.969 ± 0.084
TTATCGGGTT | 0.973 ± 0.036
TTATCGTGC | 0.9864 ± 0.0071
TTATCGTTTG | 1.02 ± 0.043
TTATCTAGTT | 1 ± 0.054
TTATCTGTTA | 1.014 ± 0.0018
TTATGAGGGT | 0.982 ± 0.015
TTATGATGGA | 0.991 ± 0.013
TTATGATTTA | 0.9434 ± 0.0029
TTATGCGATT | 1 ± 0.022
TTATGGAAGG | 1.03 ± 0.02
TTATGGCATC | 0.974 ± 0.029
TTATGGCGCC | 0.9862 ± 0.0046
TTATGGGAAA | 1.02 ± 0.023
TTATGGTCCG | 0.976 ± 0.045
TTATGGTGCT | 0.945 ± 0.051
TTATGGTTTT | 1 ± 0.024
TTATGTACGT | 1.09 ± 0.021
TTATGTACTT | 1.05 ± 0.021

Sequence | switch fluorescence ratio
TTATGTATGC | 0.95 ± 0.08
TTATGTATTT | 0.995 ± 0.015
TTATGTCAAA | 1.01 ± 0.025
TTATGTCAGG | 1.04 ± 0.015
TTATGTGAGA | 1.01 ± 0.044
TTATGTGATA | 0.95571 ± 0.00088
TTATGTGGTG | 0.974 ± 0.014
TTATGTTCAG | 1.04 ± 0.034
TTATGTTCGC | 0.975 ± 0.034
TTATGTTGGG | 1.013 ± 0.0047
TTATGTTTGT | 1.01 ± 0.033
TTATGTTTTG | 0.999 ± 0.026
TTATTAAACG | 1.015 ± 0.0029
TTATTACCGA | 1.056 ± 0.0098
TTATTACCTA | 1.06 ± 0.049
TTATTAGATG | 0.997 ± 0.018
TTATTAGATT | 1.01 ± 0.005
TTATTAGCAA | 1.93 ± 1.4
TTATTAGGGT | 1 ± 0.022
TTATTATAGT | 1 ± 0.015
TTATTATGGA | 1.02 ± 0.011
TTATTATTT | 0.994 ± 0.11
TTATTCAAAT | 1.02 ± 0.035
TTATTCGGGA | 1.02 ± 0.031
TTATTCTCAC | 1.031 ± 0.0064

Sequence | switch fluorescence ratio
TTATTCTGCT | 1.03 ± 0.03
TTATTGAAA | 1.023 ± 0.0033
TTATTGAAAA | 1 ± 0.032
TTATTGACGT | 1.003 ± 0.0024
TTATTGGCAA | 1.29 ± 0.34
TTATTGTAT | 0.988 ± 0.043
TTATTGTGCT | 0.983 ± 0.031
TTATTGTGGA | 0.9885 ± 0.0023
TTATTGTTGG | 0.974 ± 0.014
TTATTGTTGT | 1 ± 0.014
TTATTTAATT | 0.998 ± 0.027
TTATTTAGAC | 1 ± 0.024
TTATTTAGGA | 0.989 ± 0.027
TTATTTCATG | 0.984 ± 0.022
TTATTTGAAT | 1.011 ± 0.0027
TTATTTGGGG | 1.01 ± 0.056
TTATTTGTGT | 0.987 ± 0.042
TTATTTTCGT | 0.973 ± 0.018
TTATTTTGAC | 1 ± 0.023
TTATTTTTAG | 1.01 ± 0.035
TTATTTTTGT | 1.01 ± 0.026
TTCAAAATAG | 1.12 ± 0.15
TTCAAAGAGT | 0.994 ± 0.019
TTCAAAGGCC | 0.981 ± 0.049
TTCAAAGGGG | 1.09 ± 0.24

Sequence | switch fluorescence ratio
TTCAAAGGTG | 1.41 ± 0.16
TTCAAGACGG | 0.995 ± 0.023
TTCAAGTTAG | 1 ± 0.035
TTCAATATGT | 0.991 ± 0.049
TTCAATGGAA | 1.03 ± 0.011
TTCAATGGCT | 0.983 ± 0.046
TTCAATGGGC | 0.998 ± 0.064
TTCAATTGGT | 0.974 ± 0.033
TTCAATTTGC | 1.02 ± 0.033
TTCACGGACC | 1.455 ± 0.013
TTCAGAAATT | 1.01 ± 0.011
TTCAGAGACT | 1 ± 0.034
TTCAGATACC | 1.04 ± 0.017
TTCAGCATTT | 1.1 ± 0.068
TTCAGCGCGA | 1.14 ± 0.014
TTCAGGACTC | 0.973 ± 0.045
TTCAGGATTA | 0.9939 ± 0.0091
TTCAGGGGAG | 0.975 ± 0.04
TTCAGGGGCG | 1.07 ± 0.13
TTCAGGGTAT | 1.01 ± 0.037
TTCAGGTAAC | 1.054 ± 0.0022
TTCAGGTGGT | 1.06 ± 0.13
TTCAGGTTCT | 1 ± 0.04
TTCAGGTTTC | 1 ± 0.037
TTCAGTGTCG | 1.01 ± 0.073

Sequence | switch fluorescence ratio
TTCAGTTAAT | 1 ± 0.0032
TTCATATAGG | 0.984 ± 0.021
TTCATATATG | 0.989 ± 0.018
TTCATATTG | 0.9923 ± 0.0019
TTCATCCGGT | 1.52 ± 0.091
TTCATCGTAT | 1.01 ± 0.015
TTCATGAGTG | 0.9696 ± 0.0051
TTCATTACGT | 0.996 ± 0.029
TTCATTGAGT | 1.028 ± 0.0048
TTCATTGGGG | 0.99 ± 0.018
TTCATTTCTG | 1.02 ± 0.039
TTCATTTGTT | 1.11 ± 0.16
TTCATTTTAG | 1.02 ± 0.031
TTCCAAAAGG | 1.02 ± 0.054
TTCCACTTGA | 1.04 ± 0.047
TTCCAGATTC | 0.964 ± 0.013
TTCCAGGCAA | 4.47 ± 0.45
TTCCAGGGGG | 1.08 ± 0.089
TTCCATATGT | 0.975 ± 0.021
TTCCATGAGT | 0.963 ± 0.019
TTCCCATTTT | 0.995 ± 0.013
TTCCCCAGGG | 3.63 ± 1.6
TTCCCGGCAG | 1.38 ± 0.47
TTCCCGGGGA | 1.24 ± 0.4
TTCCCTAATC | 1.02 ± 0.067

Sequence | switch fluorescence ratio
TTCCCTAGTT | 1.004 ± 0.0029
TTCCGAAAGA | 1.11 ± 0.066
TTCCGATGGA | 1.33 ± 0.26
TTCCGGAAAA | 1.01 ± 0.05
TTCCGGAGGG | 1.02 ± 0.063
TTCCGGCGGA | 1.08 ± 0.026
TTCCGGGCCC | 1.16 ± 0.041
TTCCGGGCTG | 1 ± 0.02
TTCCGGGGAT | 1.04 ± 0.044
TTCCGGGGGT | 1 ± 0.015
TTCCGGTTCT | 1.03 ± 0.013
TTCCGTATTT | 1.15 ± 0.012
TTCCGTTCAG | 1.03 ± 0.0075
TTCCGTTGGG | 1.028 ± 0.0032
TTCCTACGAT | 1.42 ± 0.56
TTCCTATGTG | 1.01 ± 0.036
TTCCTCCCCT | 1.7 ± 0.82
TTCCTCGCTT | 2.75 ± 1.6
TTCCTGAGTT | 1.16 ± 0.21
TTCCTTTAGG | 0.98 ± 0.06
TTCCTTTTAC | 1.16 ± 0.008
TTCGAAGGAA | 1.1 ± 0.028
TTCGACCTAG | 0.986 ± 0.014
TTCGACTAGC | 1.03 ± 0.03
TTCGAGCCGA | 1.029 ± 0.0064
